Legend:
[1] = target: HCMV gB ectodomain base construct (gB Base) (human cytomegalovirus, Towne strain) (UniProt P13201); test: SEC; Superose 6 Increase 10/300 GL; 2 mM Tris pH 8.0, 200 mM NaCl, 0.02% sodium azide; LMW peak ~14 mL (trimers), HMW peak ~12 mL (oligomers of trimers)
[2] = target: HCMV gB ectodomain base construct (gB Base) (human cytomegalovirus, Towne strain) (UniProt P13201); test: cryo-EM structure

HCMV gB ectodomain base construct (gB Base) (from UniProt P13201 23-704) (domain or fragment)
stoichiometry N [1]: 3 | stoichiometry N [2]: 3
